Test results: a protein production outcome set (Wang et al. 2014)

experiment: label from the status in PepcDB records
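Note: failed if final PepcDB status was selected cloned or expressed and not failed if soluble or beyond.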

**Q.** With “MNSPHMDYALAPRASGPASWLETFLVTALVIGVGLWLAPEDPLQVQGEFPWSVLAPLLLGVRYGFVRGLISASLLVAAFFALRHSGLASYAQVAPSYIVGVLVCGMLVGEVRDLWERRLLRLQMANEYRQYRLDDFTRAHQILRVSHDRLEQRLAGSDQSLRSSLLGLRDRLRAAPNGGDPLSLLAEPVLTLLGQYGSLRVAGLYRVEQGASAAPQLSLLASIGTMGPLDSQDLLVRMCLEREELVSVREELLDSGAQASVSSLQACVPLVDTQGQVLAILAVRQMPFFAFQERTLSLLALLAGHIADLLHPDPQVLQLQSADAQHFTRQLKRSLVDVERHGLSGCLYAFELTQPNDELARLFERSQRGLDLHLSLANARGHELLLVLLPLTSAEGAQGYLARLGKLVHEHFGMSVELAGLGVKVLPYDLESARQRDGLRNYLYNECGLNDQQVAV” as the sequence, how does the protein production read?
**A.** Its protein production is “failed”.

**Q.** Which protein production does the source give for “MNSSESKSLVVIGGGGHASVLVDILRSQQREILAIVSPENISQRRIFSGITHLKNDDDILRFSPDSVNLVNGVGMLPKSGLKRKLNEYFLSLGYTFETVISDSAQVSSFAEIEQGAQVFSGAIIQAGVVIDAHTIINSGVIIEHDCHIGEYNHIAPKATLCGQVTTHSNVYVGANATVIQNITLEQGSIVGAGAIVTKNISSEQICYPSRSVLK” here?
**A.** Its protein production is “failed”.

**Q.** With “MNSSPPPANSANGDTTNNGENGQDLNLNFLDKIRLSAKRDAKEDEGEELPTELNTINSAGGFLVVSPDKLSVKYTNTNLHGHDVGVVQANKPAPIKCLTYYFEIFVKDSGIKGQIAIGFTKESFKMRRQPGWEVNSCGYHGDDGYLYRGQGKGEPFGPKFTKDDAVGGGINYASQEFFFTKNGTIVGKIPKDIRGHLFPTVAVHSQNEEVLVNFGKKKFAFDIKGYEASERNKQQLAIEKISIPPNIGYGLVKTYLLHYGYEETLDAFNLATKNTVPPIHIDQENAIDEDDSSYALKQRKNLRQLVRNGEIDTALAELQKLYPQIVQDDKSVVCFLLHCQKFIELVGKLEEGVNYGRLELAKFVGLTGFQDIVEDCFALLAYEKPEESSVWYFLEDSQRELVADAVNAAILSTNPNKKDVQRSCHLQSHLEKLLRQLTVCCLERRSLNGDQGETFRLRHVLNNNR” as the sequence, how does the protein production read?
**A.** The protein production was “failed”.

**Q.** For “MNSTEITQNTDVPSHFRSIKTFVLRTGRMTEGQKRNYEAFYQKWCIPYTESPIDFQTLFQNDNPVIIEIGFGMGTATAQIAEDNPDKNYLGIEVFKAGVGKLLGEIEEKKLNNLRIIEHDAIEVLENMINNESVDGFHIFFPDPWQKKRNHKRRLVRRPRTDLLSKKLKDGGYIYMVTDWENYAEDAFEQLSETPNLKSKYEKFAPSQSWRPTTKFEKKGLKKEHVINELIFEKD”, which protein production is on record?
**A.** The protein production was “failed”.

**Q.** For “MNTGMGLIWIAGASGLLAFLTSLLYFFRQDRKFLALSEKLELIAGVGLVFAIFLLAFYLLGVDTQYSYVFQHSSTDLAWHYRFSALWAGQEGSFLIWTGFIFVMLAITRFTGTGKVLRETEIFSIMRSVSLFVASVFLLLLALKNPFSMYYYTGTGVPDVTNWNLFAEPFVVSYGQGMNPLLRNPWMAIHPPLLFLGYAAFTLPFSAAIGGLVLKDSRWSELATGWMRVSWLFLTLGIGFGAFWAYEVLGWGAWYWTWDPVETSSLIPWLTATAYLHAKLRARQGEYGFLLPMLALVSFILVIFSTFVTRSGLWVSVHSWQDFTMEGMIIALFLVVLIGSSAVLLVRKYFSEE”, which protein production is on record?
**A.** The protein production was “failed”.

**Q.** Which protein production does the source give for “MNTIRPVSDLRNNFADISKIVHQSQQPVFLTKNGYGDMVVMSMETFEDMKFESDIYSKLQEAEKQASLTGKRFSSKDVFEEIQKLISELEHHHHHH” here?
**A.** The protein production was “not failed”.

**Q.** For “MNTLSIYRFKQWLKEGESPLALTLFRIAKSIRHFELPTPRLLNKVLYGLHKTLCTQWQAFTHLIFYVPAFKGRLESYGKRTLLYGGLPFFSGPLTMRIGNDCRISGQTTFSGRTNSDNPTLEVGDNVDICWQTTIAVGNKVIIGNNVRIAGQGFLCGYPGHPIDPTERALGKPDLDSQVGDIILEQDVWLGSRVSIIGNVTVGEGTIVASGSVVTKSLPPFVLAAGNPAKVIKKLDVNASNTIKEEIHYEA”, which protein production is on record?
**A.** Its protein production is “failed”.

**Q.** For “MNTLSVLLSLFTVIVVQRVFKKLSISLLSGVIVMILSLKVRNILEIFFWTVSSDSFWSLIVTVFLIYLLSGMMEKSGDYSRFSEEMRTIFSKNVDSFVPALIGLMPMPGGALFTAPIVKNSLPEENSLKLAVKNYWFRHTIEFFWPIYPAVVLVSELSGIHPGKVSLTLFPVFAIAFFLGWFFFNGKQLPCLSKPRSFFNLFPLIPVLGTGVLILLFKVSGWFALLLSTSGYAVFRRRYLLKTLKQVFNKWDVFLVLFFVYIYKVVVEHSGVGEGIAAEFVRWNLSPWILLIFLPLVSGISTGITQAAVGISLPVLMEVFSSKYAVYTYMFAVGGVILSPVHLCVVLSAKFFEVEVFDILKKVFLPLVLTLILGALVLGVIL”, which protein production is on record?
**A.** The protein production was “failed”.

**Q.** With “MNTSEHEREHDHVIEVTDLRRVYGGDFEAVRGITFSVERGELFALLGTNGAGKTSTVELLEGLAAPSGGRVRVLGHDPYEERAAVRPRTGVMLQEGGFPSELTVAETVRMWAGCTSGARPVGEALSLVGLERRPDVRVKQLSGGERRRLDLALALLGRPEVLFLDEPTTGLDAEGRQETWELVRELRDGGTTVLLTTHYLEEAEGLADRLAILHEGRIATAGTPAEVTAAQPSRISFDLPDGYFLGDLPPLADLGVSTHETTGRTVRLRTHELQRTATALLLWAQRAQVELRGLDVRSASLEEAFLRIAREAAGDRPGRPGRTDVSGTTASGKEAVALEHHHHHH” as the sequence, how does the protein production read?
**A.** Its protein production is “not failed”.

**Q.** For “MNTSSSFKALASPPLISTSRPTTKSFPNPRFTSRFSPKPITCMRDSLNLGSNPKAPSPFSLATVSVDAPLGTKTSDKLRILVSEFRSLTEPIDRVKRLLNYAATLAPLDESARISENRVTGCTTQVWLEIKMDEFGRMRFKADSDSEISKGFCSCLIWILDGAKPEEVMGVRSEDLSEMNVGVHGKEQSRVNTWHNVLMSMQKRTMTLVATDVAHQRGQRPPHQHDLLFKYVNGSYMESSKVHDYSISLLPLYYDFII”, which protein production is on record?
**A.** Its protein production is “failed”.

**Q.** With “MNTTDRDASHTLLEQVNQALQDNTPLRIRGGNSKAFLGREVTGEPLDTRAHRGIVSYDPTELVITARAGTPLSEVLQALDAAGQMLPCEPPDIGAATLGGVVAAGLSGPRRPWSGSVRDFVLGTRLITGLGKHLRFGGEVMKNVAGYDVSRLLTGSFGCLGVLTEVSLKVLPKPRLCSSIALEMDSARALACLAEWGQQPMPISAASHDGRVLRLRLEGGEGSVAAAHERLGGELIDATYWQQLNEQRLPFFFDPGPLWRVCVPADTGVLDLPGEQLIDWAGAQRWLKSDASGDAIRAMTASVGGHATCYSQGRDDSPFHPLTTPLLRYHQALKTRLDPQGIFNPGRLYREL” as the sequence, how does the protein production read?
**A.** The protein production was “failed”.

**Q.** Which protein production does the source give for “MNVAILLAAGKGERMSENVPKQFLEIEGRMLFEYPLSTFLKSEAIDGVVIVTRREWFEVVEKRVFHEKVLGIVEGGDTRSQSVRSALEFLEKFSPSYVLVHDSARPFLRKKHVSEVLRRARETGAATLALKNSDALVRVENDRIEYIPRKGVYRILTPQAFSYEILKKAHENGGEWADDTEPVQKLGVKIALVEGDPLCFKVTFKEDLELARIIAREWERIP” here?
**A.** The protein production was “not failed”.

**Q.** With “MNVDILKQRAKAFDYVFDAIVVTDLQGFIIDWNKGSETLYGYSKEQAIGQPVNMLHVPGDTEHITSEVISAVENQGKWTGEIRMLHKDGHIGWIESMCVPIYGENYQMVGALGINRDITLEHHHHHH” as the sequence, how does the protein production read?
**A.** Its protein production is “not failed”.

**Q.** With “MNVEGMATGGIHMELHCPKCQHVLDQDNGHARCPSCGEFIEMKALCPDCHQPLQVLKACGAVDYFCQHGHGLISKKRVEFVLALEHHHHHH” as the sequence, how does the protein production read?
**A.** The protein production was “failed”.

**Q.** Which protein production does the source give for “MNVKKNIALPAIMVGTFILEGVISLQFGNGLFNDKHLFIPHFLLVMLTIMTCFYKRNTTLVYAFILGLLFDIYYTGVMGIYFAIFPFTVYITDKFMKVLQNNIFLVGLITVFNIILTESLVYAFYYLIGSTTMTIPVFIDQRLWTTILFNLAFFLVIFFPFRLFLDRLVKSE” here?
**A.** Its protein production is “failed”.

**Q.** For “MNVLALDTSQRIRIGLRKGEDLFEISYTGEKKHAEILPVVVKKLLDELDLKVKDLDVVGVGIGPGGLTGLRVGIATVVGLVSPYDIPVAPLNSFEMTAKSCPADGVVLVARRARKGYHYCAVYLKDKGLNPLKEPSVVSDEELEEITKEFSPKIVLKDDLLISPAVLVEESERLFREKKTIHYYEIEPLYLQKSIAELNWEKKKRG”, which protein production is on record?
**A.** Its protein production is “not failed”.

**Q.** For “MNVLLVSVNREHAPYPVFPLGLACLAGPLRAAGHRLSVLDLCFAADPEEATRQALAEFSPDVVVLSLRNIDNVTYPGSRSYLSGVRDVVAICRERAAVVVGGSGFSLMPREVLAYLGADYGVVGEGEDVLPRLLARIAAGEGGDGLPGVVARENAGFLPPHPVQAIGTPLRGLFQVERYHREGGMANIQTKRGCPFSCIYCTYPLLEGERMRLRPVADIIAEIGDLVDVHGVSYLYFVDDIFNYPLEFALELCRAMSAARLPVAWSAFINPDFLPPQLLDAMLAAGCDALEFGTDSGSPVMLRNLRKSFGIEKVREASRLCREAGVDFAHYILFGGPGETPATIAESFALMDEVAPTAVIAMTGIRIFPGTAIYRQALADGLITPETDLLRPAFYIAPTIADTLCELVREEALKRTNWVVPGLEITANDAMLEALRHFAGPGPLWKMLKLLGRRRGSVPSPWSHSPS”, which protein production is on record?
**A.** Its protein production is “failed”.

**Q.** For “MNVPDMILYNGKITTLDPSQPEVSAIAITDGLITAVGGDELLNSATEKTKKIDLKRKRAIPGLEHHHHHH”, which protein production is on record?
**A.** The protein production was “not failed”.

**Q.** Which protein production does the source give for “MNVRNNTKLITINALLLAIGVILHQITPILGLPMQPDFALTMLFIIIILNDNFKITMVSGTLMGIFTAMTTKFPGGQLPNVVDKIFTALIVFLFIALIKKSNILGRLSVEKRNNILIAIVLPLGTLVSGILFLGTAKIIVGLPASFSILFLTVVVPSIALNTVIGLVLYRIVEKSLRRASYSIRG” here?
**A.** The protein production was “failed”.

**Q.** For “MNVTTTRFGEIAVEEAKIITLPDGMLGFSEKRFVLLTPQNITPFCWLQSVENPELAFVVVDTKECASDYAVKLTAEESEKLCVNDGDEVVLLAVVTMASDPFNITVNLQGPIALNPKRMLAKQIVLEGSRYTTKHPFFDQAARSKAPGKRNASGEVTAA”, which protein production is on record?
**A.** Its protein production is “not failed”.

**Q.** For “MNVWQVVGYKHSGKTTLMEKWVAAAVREGWRVGTVKHHGHGGEPARPEGVDSVRHERAGAVATAVEGDGLLQLHLRRPLWRLDDVLALYAPLRLDLVLVEGYKQERHPKVVLVRSEEDWASLQHLANIRAVIAWEPLEGPLAHPVFSLADDDEYIPWLMNEVRTRT”, which protein production is on record?
**A.** The protein production was “not failed”.

**Q.** For “MNWAKFRETGSPEDTDMSSTPISSDTTAVSKVIDPNYVLMVADFFKAISPDESCNDFTSFDSFSVLFQNNTRALSIARGRVSCSVTVTPGISNFFKGLHGGAVASIAERVAMACVKTVVSEDKHLFIGELSMSYLSSAPISSELLVEGTVVRTGRNLSVVTVEFKIKETMKVTYLSRATFYHSPISKL”, which protein production is on record?
**A.** The protein production was “failed”.

**Q.** With “MNWVTHKPTFEFDNFSPFIRANTAWLGHLEFAYDLVRFEKPEILVELGTHMGASFFSFCQGVKDGGLATKCFAVDTWTGDGHTGPYGEGVFHIVDKVVKTSYPNIGNLIKSTFDEAVDQFQDGTINLLHIDGYHTYEAVSHDYKTWLPKLADNGIVLFHDIEVKDRNFGVYKFWDEVKAKYPHFQFQHSYGLGVLFPKGCSDRFKEILKNKEEIQDMYKLEHHHHHH” as the sequence, how does the protein production read?
**A.** The protein production was “not failed”.

**Q.** With “MNYFATVARGLETLAAQELEQLGAHSVEPGFCGVAFEGDRTLLYRVNLWARLPFRILVDIHEFPCLDAKDLYRGIQTIDWQNYLTPDMTLAVNVTGKNAHLNHSHFTSLQVKNAIVDQQQEKLGERSNVELHEPDVRVNVHIERDFCTVKLDSSGNSLHRRGYRPAVGSAPLKESLAAALIQLSGWKQDQMFYDPLCGSGTLPLEASLKALNIAPGLFRESFGFENWLDFDLVLLEKLLQEAKDSQLDTLPAPIWGSDHDENVIEQAINNAQNCGVDNHVWFSQMELADVVAPADSGILLCNPPYGERLGRDSDLGAFYKLLGDVLKQRFKGWTAFVLSGNKELSQSIGLKSSKRIAVYNGALPCQLMKYELY” as the sequence, how does the protein production read?
**A.** Its protein production is “failed”.
